Assay results as given in patent US20220160843A1 (priority 2019, published 2022).

Columns and labels:
[1] = tested on: P. aeruginosa strain ATCC 17647; experiment: Minimal Biofilm Eradicating Concentration (MBEC), Calgary Biofilm Device; assay type: cell-based, Pseudomonas aeruginosa; conditions: 24 h biofilm, 24 h treatment; minimum concentration removing >95% of biofilm biomass (crystal violet)
Description: All samples were examined in triplicate.

[2] = tested on: P. aeruginosa; experiment: Minimal inhibitory concentration (MIC), modified CLSI broth microdilution in CAA or CAA/HuS; assay type: cell-based, Pseudomonas aeruginosa; conditions: for MIC (μg/mL) in CAA: CAA media; for MIC (μg/mL in CAA/HuS) / MIC value in CAA/HuS: CAA supplemented with 25% human serum
[3] = tested on: human erythrocytes; assay type: cell-based
Experimental: The hemolytic activity of the GN lysins was measured as the amount of hemoglobin released by the lysis of human erythrocytes (30). Briefly, 3 ml of fresh human blood cells (hRBCs) obtained from pooled healthy donors (BioreclamationIVT) in a polycarbonate tube containing heparin was centrifuged at 1,000×g for 5 min at 4° C. The erythrocytes obtained were washed three times with phosphate-buffered saline (PBS) solution (pH 7.2) and resuspended in […]. […] Intact erythrocytes were pelleted by centrifugation at 1,000×g for 5 min at 4° C., and the supernatant was transferred to a new 96-well plate. The release of hemoglobin was monitored by measuring the absorbance at 570 nm.

[4] = tested on: carbapenem-resistant P. aeruginosa strains; experiment: Resensitization of carbapenem-resistant clinical strains using carbapenems in combination with lysins; assay type: cell-based
Experimental: (§1) The checkerboard assays is based on a modification of the CLSI method for MIC determination by broth microdilution (26, 29). Checkerboards were constructed by first preparing columns of a 96-well polypropylene microtiter plate, in which each well had the same amount of antibiotic diluted 2-fold along the horizontal axis. […] Summation fractional inhibitory concentrations (ΣFICs) were calculated for each drug and the minimum ΣFIC value (ΣFICmin) was used to determine synergy. ΣFICs were calculated as follows: ΣFIC=FIC A+FIC B, where FIC A is the MIC of each antibiotic in the combination/MIC of each antibiotic alone, and FIC B is the MIC of each GN lysin in the combination/MIC of each GN lysin alone. The combination is considered synergistic when the ΣFIC is ≤0.5, strongly additive when the ΣFIC is >0.5 to <1, additive with the ΣFIC is 1−<2, and antagonistic when the ΣFIC is ≥2.
Up to seven carbapenem-resistant isolates were assessed. […] See Clinical and Laboratory Standards Institute (CLSI), CLSI. […] M100 Performance Standards for Antimicrobial Susceptibility Testing; 29th Edition. Clinical and Laboratory Standards Institute, Wayne, Pa.

[5] = tested on: P. aeruginosa; experiment: Time-kill assay of GN lysin activity; assay type: cell-based, Pseudomonas aeruginosa; conditions: for Log10 CFU/mL T = 3 hr / Log10 CFU/mL T = l hr: lysin 10 μg/mL, T = 0 7.8; for Log10 CFU/mL T = 3 hr: buffer control 7.2, limit of detection 3.7; for Log10 CFU/mL T = l hr: buffer control 7.7; for bactericidal activity in the time-kill assay format: 3-hour timepoint, 10 μg/mL, in either CAA/HuS or HEPES buffer
Experimental: All treatments were incubated at 37° C. with aeration.

[6] = tested on: carbapenem-resistant clinical strain, WC-452; experiment: Checkerboard assay to examine synergy with antibiotics in CAA/HuS; assay type: cell-based, P. aeruginosa
Experimental: Fractional inhibitor concentration index (FICI) values were determined for all combinations; values of <0.5 indicate synergy.
as §1

[7] = CAA/HuS, ‡ indicates bactericidal activity
[8] = HEPES buffer, ‡ indicates bactericidal activity

B1: GN13: Native lysin, GenBank YP_00638255.1, SEQ ID NO: 23 (protein)
chain: MSDKRVEITGNVSGFFESGGRGVKTVSTGKGDNGGVSYGKHQLASNNGSMALFLESPFGAPYRAQFAGLKPGTAAFTSVYNKIANETPTAFERDQFQYIAASHYDPQAAKLKAEGINVDDRHVAVRECVFSVAVQYGRNTSIIIKALGSNFRGSDKDFIEKVQDYRGATVNTYFKSSSQQTRDSVKNRSQQEKQMLLKLLNS
modifications: Pseudomonas phage Lu11
- MBEC [1]: 0.125 µg/mL
- MIC (μg/mL) in CAA [2]: 8 µg/mL
- MIC (μg/mL in CAA/HuS) [2]: >128 µg/mL
- hemolytic activity [3]: no hemolytic activity whatsoever

B2: GN121: Modified GN37, C-terminal peptide RKKTRKRLKKIGKVLKWI, SEQ ID NO: 13 (protein)
chain: MTYTLSKRSLDNLKGVHPDLVAVVHRAIQLTPVDFAVIEGLRSVSRQKELVAAGASKTMNSRHLTGHAVDLAAYVNGIRWDWPLYDAIAVAVKAAAKELGVAIVWGGDWTTFKDGPHFELDRSKYRRKKTRKRLKKIGKVLKWI
- GN121 Alone ([4]; isolate PA19, MIC of GN121 alone (imipenem checkerboard)): 1 µg/mL
- GN121 Alone ([4]; isolate PA19, MIC of GN121 alone (meropenem checkerboard)): 2 µg/mL
- GN121 Combination ([4]; isolate PA19, MIC of GN121 in combination with imipenem): 0.125 µg/mL
- GN121 Combination ([4]; isolate PA19, MIC of GN121 in combination with meropenem): 0.5 µg/mL
- FICI ([4]; isolate PA19, imipenem + GN121): 0.155
- FICI ([4]; isolate PA19, meropenem + GN121): 0.281
- GN121 Alone ([4]; isolate PA20, MIC of GN121 alone (imipenem checkerboard)): 1 µg/mL
- GN121 Alone ([4]; isolate PA20, MIC of GN121 alone (meropenem checkerboard)): 2 µg/mL
- GN121 Combination ([4]; isolate PA20, MIC of GN121 in combination with imipenem): 0.25 µg/mL
- GN121 Combination ([4]; isolate PA20, MIC of GN121 in combination with meropenem): 0.5 µg/mL
- FICI ([4]; isolate PA20, imipenem + GN121): 0.265
- FICI ([4]; isolate PA20, meropenem + GN121): 0.313
- GN121 Alone ([4]; isolate PA21, MIC of GN121 alone (imipenem checkerboard)): 1 µg/mL
- GN121 Alone ([4]; isolate PA21, MIC of GN121 alone (meropenem checkerboard)): 1 µg/mL
- GN121 Combination ([4]; isolate PA21, MIC of GN121 in combination with imipenem): 0.125 µg/mL
- GN121 Combination ([4]; isolate PA21, MIC of GN121 in combination with meropenem): 0.125 µg/mL
- FICI ([4]; isolate PA21, imipenem + GN121): 0.155
- FICI ([4]; isolate PA21, meropenem + GN121): 0.188
- GN121 Alone ([4]; isolate PA22, MIC of GN121 alone (imipenem checkerboard)): 2 µg/mL
- GN121 Alone ([4]; isolate PA22, MIC of GN121 alone (meropenem checkerboard)): 1 µg/mL
- GN121 Combination ([4]; isolate PA22, MIC of GN121 in combination with imipenem): 0.25 µg/mL
- GN121 Combination ([4]; isolate PA22, MIC of GN121 in combination with meropenem): 0.25 µg/mL
- FICI ([4]; isolate PA22, imipenem + GN121): 0.188
- FICI ([4]; isolate PA22, meropenem + GN121): 0.313
- GN121 Alone ([4]; isolate PA23, MIC of GN121 alone (imipenem checkerboard)): 1 µg/mL
- GN121 Alone ([4]; isolate PA23, MIC of GN121 alone (meropenem checkerboard)): 2 µg/mL
- GN121 Combination ([4]; isolate PA23, MIC of GN121 in combination with imipenem): 0.25 µg/mL
- GN121 Combination ([4]; isolate PA23, MIC of GN121 in combination with meropenem): 0.5 µg/mL
- FICI ([4]; isolate PA23, imipenem + GN121): 0.257
- FICI ([4]; isolate PA23, meropenem + GN121): 0.375
- GN121 Alone ([4]; isolate PA24, MIC of GN121 alone (imipenem checkerboard)): 1 µg/mL
- GN121 Alone ([4]; isolate PA24, MIC of GN121 alone (meropenem checkerboard)): 1 µg/mL
- GN121 Combination ([4]; isolate PA24, MIC of GN121 in combination with imipenem): 0.125 µg/mL
- GN121 Combination ([4]; isolate PA24, MIC of GN121 in combination with meropenem): 0.125 µg/mL
- FICI ([4]; isolate PA24, imipenem + GN121): 0.155
- FICI ([4]; isolate PA24, meropenem + GN121): 0.156
- GN121 Alone ([4]; isolate WC-452, MIC of GN121 alone (meropenem checkerboard)): 1 µg/mL
- GN121 Combination ([4]; isolate WC-452, MIC of GN121 in combination with meropenem): 0.06 µg/mL
- FICI ([4]; isolate WC-452, meropenem + GN121): 0.123
- resensitization of carbapenem-resistant isolates to IPM and MEM ([4]; synergistic combinations with imipenem or meropenem, breakpoints ≤2 sensitive, 4 intermediate, ≥8 resistant): reductions of IPM and MEM MICS to below breakpoint values
- Log10 CFU/mL T = 3 hr [5, 7]: <3.7‡ Log10 CFU/mL
- Log10 CFU/mL T = l hr ([5]; CAA/HuS): 7.4 Log10 CFU/mL
- Log10 CFU/mL T = 3 hr [5, 8]: <3.7‡ Log10 CFU/mL
- Log10 CFU/mL T = l hr [5, 8]: <3.7‡ Log10 CFU/mL
- MBEC [1]: 0.25 µg/mL
- MIC (μg/mL) in CAA [2]: 0.5 µg/mL
- MIC (μg/mL in CAA/HuS) [2]: 0.5 µg/mL
- MIC value in CAA/HuS [2]: 0.5 µg/mL
- synergy with antibiotics in the checkerboard assay [6]: synergize with a range of antibiotics
- FICI, Amikacin ([6]; lysin + amikacin): 0.375
- FICI, Azithromycin ([6]; lysin + azithromycin): 0.188
- FICI, Aztreonam ([6]; lysin + aztreonam): 0.625
- FICI, Ciprofloxacin ([6]; lysin + ciprofloxacin): 0.313
- FICI, Colistin ([6]; lysin + colistin): 0.375
- FICI, Fosfomycin ([6]; lysin + fosfomycin): 0.375
- FICI, Gentamicin ([6]; lysin + gentamicin): 0.375
- FICI, Imipenem ([6]; lysin + imipenem): 0.375
- FICI, Meropenem ([6]; lysin + meropenem): 0.313
- FICI, Piperacillin ([6]; lysin + piperacillin): 0.375
- FICI, Rifampicin ([6]; lysin + rifampicin): 0.313
- FICI, Tobramycin ([6]; lysin + tobramycin): 0.188

B3: GN17: Native lysin, GenBank ACD38663.1, SEQ ID NO: 24 (protein, listed as Pseudomonas aeruginosa)
chain: MTLRYGDRSQEVRQLQRRLNTWAGANLYEDGHFGAATEDAVRAFQRSHGLVADGIAGPKTLAALGGADCSHLLQNADLVAAATRLGLPLATIYAVNQVESNGQGFLGNGKPAILFERHIMYRRLAAHDQVTADQLAAQFPALVNPRPGGYAGGTAEHQRLANARQIDDTAALESASWGAFQIMGFHWQRLGYISVQAFAEAMGRSESAQFEAFVRFIDTDPALHKALKARKWADFARLYNGPDYKRNLYDNKLARAYEQHANCAEASA
- bactericidal activity in the time-kill assay format [5]: bactericidal activity
- Log10 CFU/mL T = 3 hr [5, 7]: 4.2‡ Log10 CFU/mL
- Log10 CFU/mL T = l hr ([5]; CAA/HuS): 6.4 Log10 CFU/mL
- Log10 CFU/mL T = 3 hr [5, 8]: <3.7‡ Log10 CFU/mL
- Log10 CFU/mL T = l hr [5, 8]: 5.4 Log10 CFU/mL
- MBEC [1]: 0.125 µg/mL
- MIC (μg/mL) in CAA [2]: 32 µg/mL
- MIC (μg/mL in CAA/HuS) [2]: 16 µg/mL
- hemolytic activity [3]: no hemolytic activity whatsoever

B4: GN3: Native lysin, WP_012273008.1/Lysozyme, SEQ ID NO: 2 (protein, listed as Pseudomonas putida)
chain: MRTSQRGLSLIKSFEGLRLQAYQDSVGVWTIGYGTTRGVKAGMKISKDQAERMLLNDVQRFEPEVERLIKVPLNQDQWDALMSFTYNLGAANLESSTLRRLLNAGNYAAAAEQFPRWNKAGGQVLAGLTRRRAAERELFLGAA
- bactericidal activity in the time-kill assay format [5]: bactericidal activity
- Log10 CFU/mL T = 3 hr [5, 7]: <3.7‡ Log10 CFU/mL
- Log10 CFU/mL T = l hr ([5]; CAA/HuS): 5.8 Log10 CFU/mL
- Log10 CFU/mL T = 3 hr [5, 8]: <3.7‡ Log10 CFU/mL
- Log10 CFU/mL T = l hr [5, 8]: <3.7‡ Log10 CFU/mL
- MBEC [1]: 0.25 µg/mL
- MIC (μg/mL) in CAA [2]: 16 µg/mL
- MIC (μg/mL in CAA/HuS) [2]: 16 µg/mL
- MIC value in CAA/HuS [2]: 16 µg/mL
- hemolytic activity [3]: no hemolytic activity whatsoever
